The results in this text go back to publication PMC7946437, “Cardiolipin targets a dynamin-related protein to the nuclear membrane” (eLife, 2021).

Data set [1] deals with T1, Drp6 (His-drp6) (Tetrahymena thermophila, UniProt Q38KF5, I553A).
T1 construct: full length aa 1-710, N-terminal His tag (pRSETB), expressed in E. coli C41(DE3), Ni-NTA; higher-order oligomer (at least six monomers)
The experiment in a line: Malachite Green phosphate release (BIOMOL Green). Format: biochemical. To be noted: 1 mM GTP, 1 µM protein, 25 mM HEPES pH 7.5, 15 mM KCl, 2 mM MgCl2, 37°C.

Data set [2] concerns the molecule itself. The experiment in a line: SEC; Superdex 200 GL 10/300; 500 µl of protein (0.5 mg/ml) in buffer A, 0.5 ml/min, absorbance at 280 nm; self-assembly into higher order oligomers. In general terms: Size exclusion chromatography separates by hydrodynamic size, large species first.
Substrate in data set [3]: Nc1nc2c(ncn2[C@@H]2O[C@H](COP(=O)(O)OP(=O)(O)OP(=O)(O)O)[C@@H](O)[C@H]2O)c(=O)[nH]1
The experiment in a line: Malachite Green phosphate release (BIOMOL Green). Format: biochemical, Tetrahymena thermophila. The note with it: 25 mM HEPES pH 7.5, 15 mM KCl, 2 mM MgCl2, 37°C, 10 min, GTP 50-2000 µM.

Numbering of substitutions follows the chain as printed. In names and notes the source's numbering stands.

T1 sequence (Q38KF5 entry or part of it I553A): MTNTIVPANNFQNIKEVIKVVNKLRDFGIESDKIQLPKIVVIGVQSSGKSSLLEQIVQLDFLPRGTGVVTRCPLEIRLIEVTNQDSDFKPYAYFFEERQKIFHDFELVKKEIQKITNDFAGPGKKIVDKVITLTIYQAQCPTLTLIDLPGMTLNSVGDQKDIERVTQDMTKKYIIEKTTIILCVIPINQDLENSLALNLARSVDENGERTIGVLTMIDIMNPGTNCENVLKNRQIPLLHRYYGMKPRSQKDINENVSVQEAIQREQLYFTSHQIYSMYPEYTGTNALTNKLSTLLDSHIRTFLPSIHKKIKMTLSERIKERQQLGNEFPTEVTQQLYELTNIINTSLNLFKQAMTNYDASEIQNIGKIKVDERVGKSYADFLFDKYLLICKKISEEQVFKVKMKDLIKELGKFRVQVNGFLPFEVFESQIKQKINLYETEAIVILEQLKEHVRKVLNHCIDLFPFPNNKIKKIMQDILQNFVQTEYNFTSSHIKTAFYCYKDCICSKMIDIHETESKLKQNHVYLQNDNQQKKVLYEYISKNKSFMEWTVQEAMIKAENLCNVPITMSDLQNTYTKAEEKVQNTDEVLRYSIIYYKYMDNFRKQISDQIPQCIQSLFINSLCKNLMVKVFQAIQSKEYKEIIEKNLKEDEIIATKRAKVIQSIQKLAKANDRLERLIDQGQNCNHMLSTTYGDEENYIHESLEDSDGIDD

Turning to `Nc1nc2c(ncn2[C@@H]2O[C@H](COP(=O)(O)OP(=O)(O)OP(=O)(O)O)[C@@H](O)[C@H]2O)c(=O)[nH]1` [GTP], in data set [1], the “Malachite Green phosphate release (BIOMOL Green)” value is reported as “does not affect its activity as assessed by the rate of GTP hydrolysis”.

B1: Tetrahymena dynamin-related protein 6 (Drp6), N-terminal histidine-tagged (natural protein, Tetrahymena thermophila, UniProt Q38KF5 1-710, looked up)
chain: MTNTIVPANNFQNIKEVIKVVNKLRDFGIESDKIQLPKIVVIGVQSSGKSSLLEQIVQLDFLPRGTGVVTRCPLEIRLIEVTNQDSDFKPYAYFFEERQKIFHDFELVKKEIQKITNDFAGPGKKIVDKVITLTIYQAQCPTLTLIDLPGMTLNSVGDQKDIERVTQDMTKKYIIEKTTIILCVIPINQDLENSLALNLARSVDENGERTIGVLTMIDIMNPGTNCENVLKNRQIPLLHRYYGMKPRSQKDINENVSVQEAIQREQLYFTSHQIYSMYPEYTGTNALTNKLSTLLDSHIRTFLPSIHKKIKMTLSERIKERQQLGNEFPTEVTQQLYELTNIINTSLNLFKQAMTNYDASEIQNIGKIKVDERVGKSYADFLFDKYLLICKKISEEQVFKVKMKDLIKELGKFRVQVNGFLPFEVFESQIKQKINLYETEAIVILEQLKEHVRKVLNHCIDLFPFPNNKIKKIMQDILQNFVQTEYNFTSSHIKTAFYCYKDCICSKMIDIHETESKLKQNHVYLQNDNQQKKVLYEYISKNKSFMEWTVQEIMIKAENLCNVPITMSDLQNTYTKAEEKVQNTDEVLRYSIIYYKYMDNFRKQISDQIPQCIQSLFINSLCKNLMVKVFQAIQSKEYKEIIEKNLKEDEIIATKRAKVIQSIQKLAKANDRLERLIDQGQNCNHMLSTTYGDEENYIHESLEDSDGIDD
notes: Dynamin-related protein 6 (Drp6) of Tetrahymena thermophila; the text calls the His-tagged protein the full-length protein; pRSETB vector; also called His-drp6; WT; source: E. coli C41(DE3), purified (Ni-NTA agarose); not shown: histidine tag, N-terminal, kept
Take B1: in data set [2], the “stoichiometry N” value is no less than 6 monomers. Moreover, the Km in data set [3] was 180 µM.

B2: Drp6-I553M, N-terminal histidine-tagged (natural protein, Tetrahymena thermophila, UniProt Q38KF5 1-710, looked up)
chain: B1 chain with I553M
notes: Dynamin-related protein 6 (Drp6) of Tetrahymena thermophila with I553M, made by site-directed mutagenesis of the His-drp6 construct; pRSETB vector; same limits as His-drp6 are likely (point mutant of that construct); also called His-drp6-I553M; source: E. coli C41(DE3), purified (Ni-NTA agarose); not shown: histidine tag, N-terminal, kept
For the molecule B2, the binding result in data set [2] was “binds”. Besides, in data set [3], the Km was found to be 384 µM.

B3: Drp6-I553A, N-terminal histidine-tagged (natural protein, Tetrahymena thermophila, UniProt Q38KF5 1-710, looked up)
chain: B1 chain with I553A
notes: Dynamin-related protein 6 (Drp6) of Tetrahymena thermophila with I553A, made by site-directed mutagenesis of the His-drp6 construct; pRSETB vector; same limits as His-drp6 are likely (point mutant of that construct); also called His-drp6-I553A; I553A-Drp6; source: E. coli C41(DE3), purified (Ni-NTA agarose); not shown: histidine tag, N-terminal, kept
In the case of B3, the binding result in data set [2] was “binds”.

The stoichiometry N is the number of molecules, sites or subunits per partner or assembly. The Km is the concentration of substrate that gives half-maximal velocity.
